Measured values as given in publication PMC9221443, “Peptidomimetics Based on C-Terminus of Blm10 Stimulate Human 20S Proteasome Activity and Promote Degradation of Proteins” (Biomolecules, 2022).

What was measured:
Assay in all cases: MST; NT-647-labelled protein kept constant (250 nM native and oxidized α-synuclein, 125 nM native enolase, 25 nM oxidized enolase), unlabelled h20S titrated in 16 dilutions from 1965 to 0.06 nM; 60 min (enolase) or 30 min (α-synuclein) at 22 °C; 20 mM Tris-HCl pH 7.2, 10% glycerol, 0.5 mM DTT, 0.5 mM NaN3, 0.125 mM EDTA, 100 mM NaCl; Hill fit, three independent experiments
[1] = molecular target: α-synuclein (UniProt P37840)
[2] = molecular target: oxidized human enolase 2 (human) (UniProt P09104)
[3] = molecular target: oxidized α-synuclein (UniProt P37840)

EC50 [1]: 32.3 nM
EC50 [2]: 87.8 nM
EC50 [3]: 67.6 nM
Substance: human 20S proteasome (from UniProt P25786 4-241; P28066 8-241; P28072 35-239; Q99436 44-277; P28074 60-263) (complex)
